Legend:
HLA-A*02:02 = experiment: IEDB peptide-MHC binding, purified MHC/competitive/radioactivity; filed as Kd, often an IC50 or EC50 that approximates it; ≥ and ≤ were set here for values at or beyond the usual limits of such assays
HLA-A*02:03 = experiment: as above
HLA-A*02:06 = experiment: as above
HLA-A*03:01 = experiment: IEDB peptide-MHC binding, purified MHC/direct/fluorescence; filed as Kd, often an IC50 or EC50 that approximates it; ≥ and ≤ were set here for values at or beyond the usual limits of such assays
HLA-A*11:01 = experiment: as above; conditions: source organism: Francisella tularensis subsp. holarctica LVS
HLA-B*27:05 = experiment: as above; conditions: source organism: Mammarenavirus lassaense
HLA-A*02:01 [1] = experiment: as above
HLA-A*69:01 = experiment: as above
HLA-B*07:02 [2] = experiment: IEDB peptide-MHC binding, purified MHC/competitive/radioactivity; filed as Kd, often an IC50 or EC50 that approximates it; ≥ and ≤ were set here for values at or beyond the usual limits of such assays
HLA-A*01:01 = experiment: IEDB peptide-MHC binding, purified MHC/direct/fluorescence; filed as Kd, often an IC50 or EC50 that approximates it; ≥ and ≤ were set here for values at or beyond the usual limits of such assays
HLA-A*31:01 = experiment: IEDB peptide-MHC binding, purified MHC/competitive/radioactivity; filed as Kd, often an IC50 or EC50 that approximates it; ≥ and ≤ were set here for values at or beyond the usual limits of such assays; conditions: source organism: SARS coronavirus Tor2
HLA-A*33:01 = experiment: as above; conditions: source organism: SARS coronavirus Tor2
HLA-A*68:01 = experiment: as above; conditions: source organism: SARS coronavirus Tor2
HLA-B*53:01 = experiment: as above; conditions: source organism: Dengue virus 2 Jamaica/1409/1983
HLA-B*07:02 [3] = experiment: IEDB peptide-MHC binding, purified MHC/direct/fluorescence; filed as Kd, often an IC50 or EC50 that approximates it; ≥ and ≤ were set here for values at or beyond the usual limits of such assays; conditions: source organism: dengue virus type 4
HLA-B*51:01 = experiment: IEDB peptide-MHC binding, purified MHC/competitive/radioactivity; filed as Kd, often an IC50 or EC50 that approximates it; ≥ and ≤ were set here for values at or beyond the usual limits of such assays
HLA-A*02:01 [4] = experiment: IEDB peptide-MHC binding, purified MHC/competitive/fluorescence; ≥ and ≤ were set here for values at or beyond the usual limits of such assays
HLA-B*58:01 = experiment: IEDB peptide-MHC binding, purified MHC/direct/fluorescence; filed as Kd, often an IC50 or EC50 that approximates it; ≥ and ≤ were set here for values at or beyond the usual limits of such assays
HLA-B*15:01 = experiment: as above
[5] = source organism: Vaccinia virus WR
[6] = source organism: Lymphocytic choriomeningitis virus (strain Armstrong)
[7] = source organism: Vibrio vulnificus
[8] = source organism: Dengue virus 3 Martinique/1243/1999
[9] = source organism: Mammarenavirus juninense
[10] = source organism: Yersinia pestis
[11] = source organism: Lassa virus Josiah
[12] = source organism: West Nile virus

Sequence	Kd (HLA-A*02:02; [5])	Kd (HLA-A*02:03; [5])	Kd (HLA-A*02:06; [5])	further results
RIASILSLET	583 nM	449 nM	751 nM	
RIITILQDI	583 nM	5.57 nM	2.01 nM	
RISSSLDQT	6790 nM	12800 nM	≥ 27800 nM	
RIYCQENPY				Kd (HLA-A*03:01; source organism: Francisella tularensis subsp. holarctica LVS): 91.7 nM; Kd (HLA-A*11:01): 26.3 nM
RLFTRCAVI	93.8 nM	249 nM	2820 nM	
RNHLRDLMGV				Kd (HLA-A*02:02; [6]): 428 nM; Kd (HLA-A*02:03; [6]): 733 nM; Kd (HLA-A*02:06; [6]): 107 nM
RRLKAEAQM				Kd (HLA-B*27:05): 53 nM
RTNDLTALL	3.66 nM	7.23 nM	119 nM	
RVSENTGMGM	839 nM	88.9 nM	146 nM	
SADNHPKMI	8180 nM	≥ 43500 nM	≥ 77100 nM	
SANMDWRSLT	1790 nM	11300 nM	≥ 48000 nM	
SAWESFWRI				Kd (HLA-A*02:01 [1]; [7]): 12.8 nM; Kd (HLA-A*69:01; [7]): 1.4 nM
SLTTIGTIA	1.04 nM	3.69 nM	489 nM	
SPGYVLGVFL				Kd (HLA-B*07:02 [2]; source organism: Dengue virus 4 Dominica/814669/1981): 238 nM
SPPETQKAEL				Kd (HLA-B*07:02 [2]; [8]): 28.4 nM
SSSLTSLLK				Kd (HLA-A*01:01; source organism: SARS-CoV1): 1110 nM; Kd (HLA-A*31:01): 4760 nM; Kd (HLA-A*33:01): ≥ 41500 nM; Kd (HLA-A*68:01): 9330 nM
SVTRLENLMW				Kd (HLA-B*53:01): 437 nM
TILDDNLYKV	1080 nM	1630 nM	48.8 nM	
TLHFLTRGK				Kd (HLA-A*03:01; [9]): 344 nM
TMGPHPAGV				Kd (HLA-A*02:01 [1]; source organism: Burkholderia pseudomallei): 0.7 nM
TPEGIIPTL				Kd (HLA-A*69:01; source organism: dengue virus type 4): 2720 nM; Kd (HLA-B*07:02 [3]): 9240 nM
TPMLRHTIEN				Kd (HLA-B*07:02 [2]; [8]): 1020 nM

Sequence	Kd (HLA-A*02:02; [5])	Kd (HLA-A*02:03; [5])	Kd (HLA-A*02:06; [5])	further results
TPRAKRGTA				Kd (HLA-B*07:02 [2]; source organism: Dengue virus 1 Brazil/97-11/1997): 227 nM
TPVTTWENV				Kd (HLA-B*51:01; [8]): 12900 nM
TQLFKYVPSA	≥ 70000 nM	≥ 70400 nM	≥ 69800 nM	
TVKNVDIIDL	≥ 31300 nM	8310 nM	12400 nM	
VAEIQPQWI				Kd (HLA-B*51:01; source organism: Dengue virus 4 Philippines/H241/1956): ≥ 20900 nM
VAFLILPQA				IC50 (HLA-A*02:01 [4]; source organism: Zaire ebolavirus): 520 nM
VIKLVKSLV	1030 nM	126 nM	4120 nM	
VIRHVDGKI	8550 nM	978 nM	9270 nM	
VPMAGPLVA				Kd (HLA-B*07:02 [2]; [8]): 56 nM
VSFSMVGLF				Kd (HLA-B*58:01; [9]): 119 nM
VSIPITAAAW				Kd (HLA-B*53:01): 402 nM
VSWKPWSSK				Kd (HLA-A*03:01; source organism: Cryptosporidium parvum): 50.7 nM
VTKRDESSI	8050 nM	2140 nM	≥ 38300 nM	
VVYRGTTTY				Kd (HLA-B*15:01; source organism: SARS-CoV1): 110 nM; Kd (HLA-B*58:01; source organism: SARS-CoV1): 281 nM; Kd (HLA-A*31:01): 9740 nM; Kd (HLA-A*33:01): ≥ 77700 nM; Kd (HLA-A*68:01): 8790 nM
WPLNEGVMAV				Kd (HLA-B*51:01; [8]): 1670 nM
WQNLAWAGV				Kd (HLA-A*02:01 [1]; [10]): 53.6 nM; Kd (HLA-A*69:01; [10]): 7000 nM
WTLDANINA				IC50 (HLA-A*02:01 [4]; source organism: Sudan ebolavirus): 3850 nM
YAAEMVEYL	0.524 nM	2.07 nM	11.8 nM	
YAGTIKESLL	1020 nM	4040 nM	1770 nM	
YCSNIKLQVV				Kd (HLA-A*02:02; [11]): 1230 nM; Kd (HLA-A*02:03; [11]): 801 nM; Kd (HLA-A*02:06; [11]): 7120 nM
YQTDSGCWY				Kd (HLA-A*01:01; [12]): 6060 nM; Kd (HLA-B*15:01; [12]): 1340 nM

From the Immune Epitope Database (IEDB)
